Test results from patent US20220259593A1, “CONTROL OF MAMMALIAN GENE DOSAGE USING CRISPR” (The Regents of the University of California, priority 2019, published 2022).
Changes are numbered by the printed parent chain.

B1: cr081 (nucleic acid)
guide: ATTAAAGAGCTAAGCTGGAAACAGCATAGCAAGTTTAAATAAGGCTAGTCCGTTATCAACTTGAAAAAGTGGCACCGAGTCGGTGCT
modifications: listed as DNA, chemistry not fully specified
B2: cr114 (nucleic acid)
guide: B1 guide with A1G, A4T, G43T, C45T, G48A, C51A, A74C, T84G
modifications: listed as DNA, chemistry not fully specified
B3: cr137 (nucleic acid)
guide: B1 guide with A1G, A4T, A42G, G52T, A64C
modifications: listed as DNA, chemistry not fully specified
B4: cr648 (nucleic acid)
guide: B1 guide with A1G, A4T, G33C, G44T, C50A
modifications: listed as DNA, chemistry not fully specified
B5: cr295 (nucleic acid)
guide: B1 guide with A1G, A4T, T34G, C73G, G85C
modifications: listed as DNA, chemistry not fully specified
B6: cr455 (nucleic acid)
guide: B1 guide with A1G, A4T, C60T, T62G, A67C, G69A
modifications: listed as DNA, chemistry not fully specified
B7: cr436 (nucleic acid)
guide: B1 guide with A1G, A4T, T34G, A59T, T70A
modifications: listed as DNA, chemistry not fully specified
B8: cr862 (nucleic acid)
guide: B1 guide with A1G, A4T, G29T, A32C, G33C
modifications: listed as DNA, chemistry not fully specified
B9: cr160 (nucleic acid)
guide: B1 guide with A1G, A4T, G33T, T34C
modifications: listed as DNA, chemistry not fully specified
B10: cr807 (nucleic acid)
guide: B1 guide with A1G, A4T, A41T, A78T
modifications: listed as DNA, chemistry not fully specified
B11: cr664 (nucleic acid)
guide: B1 guide with A1G, A4T, G33C, T34C
modifications: listed as DNA, chemistry not fully specified
B12: cr512 (nucleic acid)
guide: B1 guide with A1G, A4T, T34G, G44C, C50G
modifications: listed as DNA, chemistry not fully specified
B13: cr415 (nucleic acid)
guide: B1 guide with A1G, A4T, G52C, A67T
modifications: listed as DNA, chemistry not fully specified
B14: cr499 (nucleic acid)
guide: B1 guide with A1G, A4T, G33C, T53A, T80G
modifications: listed as DNA, chemistry not fully specified
B15: cr778 (nucleic acid)
guide: B1 guide with A1G, A4T, C51G
modifications: listed as DNA, chemistry not fully specified
B16: cr339 (nucleic acid)
guide: B1 guide with A1G, A4T, G43C, G44C, C50G, C51G
modifications: listed as DNA, chemistry not fully specified

System: K562 CRISPRi cells
Assay: Constant region variant library pooled growth screen, K562
Format: cell-based, human
Procedure, shortened: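 K562 CRISPRi, duplicate transductions; puromycin 1 d 0.75 μg/mL then 1 d 0.85 μg/mL; >2000× coverage in spinner flasks; harvests at 4-8 d growth. Activity = phenotype ÷ phenotype with unmodified constant region.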

[1] = sgRNA constant region variant, activity relative to unmodified constant region cr995, mean CRISPRi activity

Row | Molecule | Mean relative activity [1] | Mean relative activity (sgRNA constant region variants, activity relative to the original, un-modified constant region cr995)
1 | B1 | 0.009207 | –
2 | B2 | 0.008589 | –
3 | B3 | 0.008516 | –
4 | B4 | 0.008305 | –
5 | B5 | 0.008268 | –
6 | B6 | – | 1.031
7 | B7 | 0.008129 | –
8 | B8 | 0.007887 | –
9 | B9 | 0.007879 | –
10 | B10 | 0.00776 | –
11 | B11 | 0.007435 | –
12 | B12 | 0.007414 | –
13 | B13 | 0.007281 | –
14 | B14 | 0.007257 | –
15 | B15 | 0.0072 | –
16 | B16 | 0.00717 | –
